Assay results as given in the supplement of paper PMC10567573.

B1: STX5 (parent)
chain: ESTIVELGSIFQQLAHMVKEQEET
B2: FAM116A (parent)
chain: TVHEVDIFRCFCPVFLHSQMLWEL

Variants of: B1
Assay: protein stability index of a GFP-peptide fusion (GPS, HEK-293T) (PSI 1-6); higher = more stable
Conditions: c terminus: a fixed tail appended
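Further: lentivirally expressed fusions sorted by FACS into six bins by GFP to DsRed ratio, PSI derived from sequencing read proportions per bin multiplied by bin number.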

Protein stability index of substitutions, site by site:
Q12: T 1.93, W 1.32, H 3.15, M 1.98, A 1.98
Q13: N 2.23, C 2.32, Y 2.37, S 2.95, I 1.44, G 4.12, M 1.98, E 2.57
L7: M 2.48, C 3.74, W 2.99, D 5.12, Q 4.89, E 5.22, K 5.07, R 5.13, V 4.25, I 2.16, F 3.03
M17: G 3.86, T 4.18, S 3.4, Y 3.29, W 2.06, R 3, E 3.41, H 3.7, Q 2.26, K 2.06
S9: A 1.65, Q 2.1, V 1.8, Y 1.46, H 2.64, R 2.41
V5: Y 2.28, T 1.99, A 2.28, G 2.79, W 2.22, C 2.58, F 1.83
E6: F 2.19, K 2.54, I 3.1, D 1.63, T 1.91, A 1.65, L 2.34, P 2.75, G 2.75, M 1.95
G8: T 2.69, F 2.06, Q 1.68, A 2.47, C 2.33, M 1.35, Y 3.89, S 2.79, D 2.28, E 3.02, P 3.99
I4: P 2.93, Q 3.69, F 2.29, W 2.54, E 2.8, R 3, Y 1.91, G 2.42, C 2.83, V 3.59, S 2.64
I10: A 4.32, P 5.58, C 3.72, D 5.88, F 2.26, S 4.89, Q 4.27, L 2.63, Y 3.49
V18: C 2.44, W 2.22, H 3.73, R 3.65, F 1.81, T 3.45, D 5.09, K 4.16, P 4.45, M 2.79
E23: K 1.48, I 2.38, N 1.47, L 1.42, V 3.06, Q 2.5
L14: E 5.33, T 4.78, H 4.11, R 5.32, Y 1.81, P 4.93
E22: D 1.97, W 1.53, P 1.69, A 2.75, L 5.42, Y 1.39, T 1.39, F 2.88, G 1.06
F11: N 5.61, W 2.83, M 2.98, P 4.65, H 5.76, C 3.62, Y 3.19
T24: L 1.5, N 2.88, Y 2.29, E 2.12, A 2.17, H 2.42, G 1.97, I 1.78, K 1.83, R 2.12
Q21: L 2.67, M 1.87, W 3.33, H 1.97, N 2.12, P 3.29, Y 2.23, F 1.98
H16: A 2.13, T 3.09, Y 1.67, N 1.97, P 4.65, Q 1.33, D 1.78
E20: R 1.76, P 1.61, A 2.19, H 1.62, C 2.54, N 1.53, D 2.78, F 1.98, Y 3.75, M 4.03, Q 1.12
T3: C 2.02, D 2.04, K 2.83, W 1.24, P 3.03, N 2.31, F 1.3, I 2.94, S 2.72, H 2.4
S2: P 1.7, C 3.01, M 1, K 2.24, Y 1.7, L 2.28, W 2.19, Q 1.97, T 2.05, N 1.97
A15: H 3.15, R 2.67, C 2.21, Y 1.74, M 1.74, I 1.53, E 4.21, D 4.28, G 3.91, Q 2.81, P 4.91
K19: C 1.41, R 1.85, M 1.9, D 4.35, P 4.08, G 2.76
E1: V 1.79, S 1.9, Y 2.49, W 1.61, L 2.6, A 2.13, D 2.77, P 2.71, K 1.87, R 2.27, C 2.31, F 2.08, G 2.69, T 2.26

Variants of: B2
Assay: as above
Conditions: c terminus: a fixed tail appended

Protein stability index: each site, then its substitutions
F11: G 2.22, R 1.38, H 2.82, Q 1.64, K 2.82, C 2.65, N 2.04
T1: L 1.68, P 1.67, D 4.17, G 1.75, H 3.11, Q 3.46, K 2.66, Y 2.93, I 1.4, R 3.09, M 1.98
C10: T 1.93, S 2.89, V 2.69, K 2.63, H 4.15, R 2, P 4.46, M 3.4
H3: L 2.85, K 2.14, Y 3.37, W 3.13, D 2.26, G 3.96, T 1.85, N 3.08, F 2.37, P 3.24, E 1.82
V5: S 2.17, Y 2.28, W 2.47, N 1.84, R 4.06, T 3.3, K 1.93
I7: N 1.09, G 3.26, C 2.28, Y 3.48, T 2.49, M 1.22, R 1.94
F8: W 3.88, V 2.4, G 1.07, C 2.96, H 1, M 3.18, R 1.45, Y 2.89, P 2.36, L 3.07, N 2.05, K 2.31, A 2.53
C12: F 2.77, R 3.5, I 2.54, M 2.97, E 1.52, K 1.79
P13: A 2.36, N 1.5, I 3.13, L 1, Y 1.72, K 2.83
R9: A 2.82, F 2.13, E 4.78, H 2.19, S 3.12, Q 3.69, T 1.99, P 1.77, D 2.96
E4: R 3.14, P 3.77, D 1.46, Y 3.35, Q 1.79, I 3.19, C 1.53, S 4.26, K 3.86, H 3.03, T 3.43
V2: N 1.76, Y 3.92, M 2.05, W 2.7, A 1.77, R 3.97, K 1.73, E 1.04, Q 2.08, C 2.57
V14: L 4.01, K 2.41, A 2.13, G 3.26, F 2.97, Q 3.31
D6: N 3.02, I 2.2, P 1.7, Q 2.07, A 4.47, H 2.23, K 2.61, Y 2.19, W 3.69
